Assay: Expression and solubility of L1 protein in insect cells (cell lysate vs supernatant, SDS-PAGE)
Format: physicochemical
Details: supernatant after centrifugation of lysate
Protocol: FIG. 4: Expression of C-terminal truncated HPV 16L1 (1-474). M: Marker; L: cell lysates; E-S: supernatant collected after centrifugation of the lysates.
High Five cells were infected with baculovirus containing the HPV6 L1: 33C recombinant gene obtained in Example 2 at a ratio of 1:200 (V/V), and the cell precipitate was collected by centrifugation at 1000 g±100 g at room temperature. The cells were broken up by sonication at low temperature for 3 min, centrifuged at >10,000 g for 10 min and the supernatant was collected for SDS-PAGE. Lane 1: Marker (The marker is a mixture of 7 purified proteins with molecular weights ranging from 14.4 kDa to 116 kDa, produced by Thermo Scientific); Lane 2: cell lysate; Lane 3: supernatant of the lysate collected by centrifugation.
The inventors attempted to truncate the C-terminus of HPV16 L1 by 31 amino acids and named it HPV16 L1 (1-474) (SEQ ID NO: 27).

HPV16 L1 (1-474): Comparative example: HPV16 L1 protein with the C-terminus truncated by 31 amino acids
solubility of the expressed L1 protein: very poor solubility
solubility of the expressed L1 protein (listed as HPV 16 L1 (1-474)): poor solubility

From patent publication US12440549B2, “Polyvalent immunogenicity composition for human papillomavirus” (SinoCellTech Ltd., priority 2019, dated 2025)
